Entries after “also recorded” stand apart in the source; their conditions may differ.
Target: T1, NarX (Escherichia coli, UniProt P0AFA2, T450I/V366A)
T1 construct: All genes were; made in house; host or cells: cell-free expression in situ, myTXTL E. coli extract (Arbor Biosciences), with synthetic lipid vesicles
Assay: Cell-free NarX-L system encapsulated in giant unilamellar vesicles
Format: biochemical, E. coli
Conditions: GUV-encapsulated NarX-L, nitrate dependent signaling (FIG. 16)
Excerpt: Over the last decade, many promising cell-free systems have been developed, enabling the delivery and sensing of a wide array of ligands in non-ideal environments. Cell-free systems have been encapsulated and administered to mice (47), lyophilized and used in resource limited settings (6, 7), and integrated into wearable materials to sense environmental contaminants (8). Towards the goal of creating cell-mimetic particles which can sense environmental stimuli in complex environments, such as the body, we encapsulated our cell-free system into giant unilamellar vesicles using the emulsion transfer method (FIG. 5A). We encapsulated cell-free extract containing plasmids encoding NarX, NarL, and the downstream protein (luciferase or mEGFP) into membranes composed of 1 POPC: 1 cholesterol and a rhodamine conjugated lipid. We hypothesized that by encapsulating cell-free reaction components into vesicles, NarX could insert into membranes and initiate signaling in response to exogenously added nitrate. […]
For samples containing the luciferase plasmid, 0.5 μL of NanoGlo Luciferase substrate was added to the reaction, and reactions were read on a Molecular Devices Spectra Max i3 plate reader. […] Images were analyzed using the Nikon NIS software.

T1 sequence (P0AFA2 other isoform, or with tags, fused parts or gaps V366A/T450I): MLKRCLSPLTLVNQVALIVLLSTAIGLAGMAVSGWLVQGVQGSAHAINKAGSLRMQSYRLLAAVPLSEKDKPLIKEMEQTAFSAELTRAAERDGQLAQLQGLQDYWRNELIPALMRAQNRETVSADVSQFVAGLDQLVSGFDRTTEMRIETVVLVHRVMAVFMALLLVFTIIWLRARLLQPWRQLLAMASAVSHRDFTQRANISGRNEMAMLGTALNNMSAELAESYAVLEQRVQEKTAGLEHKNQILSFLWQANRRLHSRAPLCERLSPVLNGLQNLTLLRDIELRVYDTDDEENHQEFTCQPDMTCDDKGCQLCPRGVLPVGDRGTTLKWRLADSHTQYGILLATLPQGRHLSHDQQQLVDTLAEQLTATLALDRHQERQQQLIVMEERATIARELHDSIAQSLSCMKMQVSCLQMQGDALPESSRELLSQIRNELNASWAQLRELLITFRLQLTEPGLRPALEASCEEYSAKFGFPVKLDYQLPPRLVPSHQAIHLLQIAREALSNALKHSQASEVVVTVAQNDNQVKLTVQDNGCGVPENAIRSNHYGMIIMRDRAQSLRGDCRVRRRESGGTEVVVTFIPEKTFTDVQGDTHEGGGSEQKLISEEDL

B1: Proteinase K: protease added to the outside of vesicles (protein, UniProt P06873 106-384, looked up)
Proteinase K: AAQTNAPWGLARISSTSPGTSTYYYDESAGQGSCVYVIDTGIEASHPEFEGRAQMVKTYYYSSRDGNGHGTHCAGTVGSRTYGVAKKTQLFGVKVLDDNGSGQYSTIIAGMDFVASDKNNRNCPKGVVASLSLGGGYSSSVNSAAARLQSSGVMVAVAAGNNNADARNYSPASEPSVCTVGASDRYDRRSSFSNYGSVLDIFGPGTSILSTWIGGSTRSISGTSMATPHVAGLAAYLMTLGKTTAASACRYIADTANKGDLSNIPFGTVNLLAYNNYQA
effect on encapsulated TCS signaling when added outside of vesicles: signaling was inhibited; also recorded: is inhibited
